Measurements reported in US20250250357A1 (NANJING ZAIMING PHARMACEUTICAL, published 2025).

T1: monkey MSLN full-length protein (NCBI: XP_028696439.1) expressed on HEK293T-monkey MSLN cells (monkey)
T1 construct: Whole encoded precursor
T1 chain: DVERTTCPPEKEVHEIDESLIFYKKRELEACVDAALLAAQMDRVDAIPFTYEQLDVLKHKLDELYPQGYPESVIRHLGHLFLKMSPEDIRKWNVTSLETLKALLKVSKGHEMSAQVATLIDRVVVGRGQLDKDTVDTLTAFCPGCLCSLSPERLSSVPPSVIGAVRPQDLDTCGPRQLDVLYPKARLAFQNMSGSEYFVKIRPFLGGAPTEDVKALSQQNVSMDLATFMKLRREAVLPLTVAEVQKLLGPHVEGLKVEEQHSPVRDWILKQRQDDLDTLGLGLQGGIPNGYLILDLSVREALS

B1: S009-F2.21.4 (antibody, human IgG1, kappa, V domains shown)
VH: EVQLQQSGPELVKPGASVKIPCKASGYTFTDYNMDWVKQSHGKSLEWIGDINPNNGGSIYNQRFKGKATLTVDKSSSTAYMELRSLTSEDSAVYYCARRAYYSTGYFDVWGTGTTVTVSS
VL: QIVLTQSPALMSASPGEKVTITCSASSSISYMHWFQQKPGTSPKLWIYSTSTLASGVPARFSGSGSGTSYSLTISRMEAEDTATYYCQQRSSYPPTFGGGTKLEIKR
notes: human-murine chimeric antibody, human IgG1/kappa constant regions
B2: S009-F2.39.3 (antibody, human IgG1, kappa, V domains shown)
VH: QVQLQQPGTELVKPGASVKLSCKASGYTFTNYWMHWVKQRPGQGLEWIGNINPSSGDSYYNERFMSKAKMTVDKSSSTAYMQLSSLTSEDSAVYYCARSGGLWLAFWGPGTLVTVSA
VL: DIVMTQSPSSLAMSVGQKVTMSCKSSQTLLNSVSQNNYLAWYQQKPGQSPTLLVYFASTRESGVPDRFIGGGSGTDFTLTISSVQAEDLADYFCQQHYRTPYTFGGGTNLEIKR
notes: as for B1
B3: S009-F2-56.12 (antibody, human IgG1, kappa, V domains shown)
VH: DVQLQESGPGMVKPSQSLSLTCTVTGYSITSGYDWHWIRHFPGNKLEWMGYISYSGSTNYNPSLKSRISITHDTSKNHFFLKLKSVTTEDTATYYCARGTGPDYWGQGTTLTVSS
VL: DIVMTQSQKFMSTSVGDRVSITCKASQNVRTAVAWYQQKPGQSPKALIHLPSNRHTGVPDRFTGSGSGTDFTLTISNVQSEDLADYFCLQHWNYPLTFGGGTKLEIKR
notes: as for B1
B4: S009-F2.16.10 (antibody, human IgG1, kappa, V domains shown)
VH: QVQLQQPGAELIKPGASVKLSCKASGYTFTSYWMHWVKQRPGQGLEWIGIIHPNIGSTNYNERFKSKATLTVDKSSSTAYMQLSSLTSEDSAVYYCARRSSNYGDWYFDVWGTGTTVTVSS
VL: DIVMTQSHRFMSTSVGDRVSITCKASQDVGTSVAWYQQKPGQSPKLLIYWASTQHTGVPDRFTGSGSGTDFTLTINNVQSEDLLDYFCQQYSSYPLTFGAGTKLELKR
notes: as for B1
B5: S009-F2.23.12 (antibody, human IgG1, kappa, V domains shown)
VH: QVQLQQPGTELVKPGASVKLSCKASGYTFTNYWMHWVKQRPGQGLEWIGNINPSNGGPYYNERFRSKATLTVDKSSSTAYMQLSSLTSEDSAVYYCARPYYGSSYGYFDYWGQGTTLTVSS
VL: DIQMTQSPSSLSASLGGKVTITCKASQDINKYIAWYQHKPGKGPRLLIHYTSELQPGIPSRFSGNGSGRDYSFSISNLEPEDIATYYCLQYANPLRTFGGGTKLEIKR
notes: as for B1
B6: S009-F2.17.3 (antibody, human IgG1, kappa, V domains shown)
VH: QVQLQQPGTELVTPGASVKLSCKASGYSFTSYWMHWVKQRPGQGLEWIGNINPSNGDTFYNEKFKNKATLTVDKSSSTAYMQLSSLTSEDSAVYYCARGWLRDYWGQGTTLTVSS
VL: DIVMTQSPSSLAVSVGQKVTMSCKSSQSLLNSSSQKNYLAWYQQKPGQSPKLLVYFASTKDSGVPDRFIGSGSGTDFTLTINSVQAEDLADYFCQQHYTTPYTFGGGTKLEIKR
notes: as for B1

What follows are binders tested against T2, human MSLN protein endogenously expressed on OVCAR3 tumor cells (human, UniProt Q13421 296-598) (assay: FACS on OVCAR3 cells).
T2 construct: whole, on cells; Endogenous target on OVCAR3 cells; kept apart from the recombinant full-length construct; also called mesothelin
T2 sequence (Q13421 other isoform, or with tags, fused parts or gaps): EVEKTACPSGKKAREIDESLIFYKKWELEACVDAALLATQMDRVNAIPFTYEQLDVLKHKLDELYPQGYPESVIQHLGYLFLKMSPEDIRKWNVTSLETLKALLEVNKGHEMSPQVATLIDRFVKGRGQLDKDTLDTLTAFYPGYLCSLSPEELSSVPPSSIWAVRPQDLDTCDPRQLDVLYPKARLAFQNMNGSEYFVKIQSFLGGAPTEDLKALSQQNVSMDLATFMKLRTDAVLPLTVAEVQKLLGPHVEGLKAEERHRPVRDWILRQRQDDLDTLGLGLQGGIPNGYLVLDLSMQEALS
Procedure: (§1) The desired cells were expanded to the logarithmic growth phase in a T-75 cell culture flask. […] After the cells from the previous step were subjected to cell counting, the cell pellet was resuspended to 2×10⁶ cells/mL in a blocking buffer of [PBS+2% (w/w) BSA] and added into a 96-well FACS reaction plate at 50 μL/well. A chimeric antibody (a sample to be tested) was added at 50 μL/well, and the plate was incubated on ice for 2 h. […] After the plate was centrifuged and washed 5 times with a PBST buffer, assay and analysis were performed by FACS (FACS CantoII, purchased from BD). Data analysis was performed by software (Flowjo) to obtain the mean fluorescence intensity (MFI) of the cells.

Going from B1 to B2, the “Maximum mean fluorescence intensity” value rises from 5260 to 14600.

Compared with B3, B4 is higher in “Maximum mean fluorescence intensity” value: 6140 for the first, 14400 for the second.

Compared with B5, B6 is higher in “Maximum mean fluorescence intensity” value: 14600 for the first, 17600 for the second.

First: B2
Second: B3
The EC50 of the first is 10-fold higher: 5.52 nM for the first, 0.54 nM for the second. The second is the more potent here.

Going from B4 to B5, the EC50 falls from 2.96 nM to 1 nM (3-fold). The second is the more potent here.

B6 showed an EC50 of 2.92 nM.

What follows are binders tested against T3, human MSLN full-length protein (NCBI: AAH09272.1) expressed on HEK293T-hMSLN-B8 cells (human, UniProt Q13421 296-598) (assay: FACS on HEK293T-hMSLN-B8 cells).
T3 construct: Whole encoded precursor
T3 sequence (Q13421 other isoform, or with tags, fused parts or gaps limits assumed): as the sequence (Q13421 other isoform, or with tags, fused parts or gaps) above, with R14P counted along it
Procedure: as §1

Going from B1 to B2, the EC50 rises from roughly 0.82 nM to 5.79 nM (7.1-fold). The first is the more potent here.

B3 and B4 are within 1.5-fold of each other in EC50: roughly 0.79 nM for the first, 0.88 nM for the second.

Compared with B5, B6 is 1.7-fold higher in EC50: 2.39 nM for the first, 3.95 nM for the second.

Going from B1 to B2, the “Maximum mean fluorescence intensity” value rises from 91800 to 138000.

Compared with B3, B4 is higher in “Maximum mean fluorescence intensity” value: 67000 for the first, 109000 for the second.

Going from B5 to B6, the “Maximum mean fluorescence intensity” value rises from 144000 to 148000.

Each binder was assayed against T4, human MSLN-R3 protein (Met487-Ser606 of NCBI AAH09272.1) expressed on HEK293T-hMSLN-R3 cells (human, UniProt Q13421 487-606) (assay: FACS on HEK293T-hMSLN-R3 cells).
T4 construct: also called Region3
T4 sequence (Q13421 495-614): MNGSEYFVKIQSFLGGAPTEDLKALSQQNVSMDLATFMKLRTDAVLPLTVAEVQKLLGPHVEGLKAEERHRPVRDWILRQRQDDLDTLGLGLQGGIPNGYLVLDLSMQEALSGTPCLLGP
Procedure: as §1

Compared with B1, B2 is higher in “Maximum mean fluorescence intensity” value: 348 for the first, 3290 for the second.

Compared with B3, B4 is higher in “Maximum mean fluorescence intensity” value: 94 for the first, 114 for the second.

Going from B5 to B6, the “Maximum mean fluorescence intensity” value falls from 3880 to 3840.

B1: no binding.
B3: no binding.
B4: no binding.

Compared with B2, B5 is 8.4-fold lower in EC50: 4.19 nM for the first, 0.5 nM for the second. The second is the more potent here.

For B6, the EC50 was 1.48 nM.

Target: T1, monkey MSLN full-length protein (NCBI: …)
Experiment: FACS on HEK293T-monkey MSLN cells
Procedure: as §1

Compared with B1, B2 is 9.5-fold higher in EC50: 0.44 nM for the first, 4.18 nM for the second.

Compared with B4, B5 is 2.8-fold higher in EC50: 0.3 nM for the first, roughly 0.83 nM for the second. The first is the more potent here.

For B6, the EC50 was 1.63 nM.

Compared with B1, B2 is higher in “Maximum mean fluorescence intensity” value: 20100 for the first, 20800 for the second.

First: B3
Second: B4
The “Maximum mean fluorescence intensity” value of the first is lower: 95 for the first, 18400 for the second.

First: B5
Second: B6
The “Maximum mean fluorescence intensity” value of the first is lower: 20400 for the first, 24300 for the second.

B3: no binding.
